These results are taken from patent publication US9266930.

One assay has as its target HLA-A*0201 (Human).
Settings: not given
Turning to GLALLACAGL (modifications not checked) [… (Pf SSP2 507, 10-mer)], the binding affinity ratio (IC50 of standard peptide / IC50 of test peptide) was 0.017.

With LLMDCSGSI (modifications not checked) [… (Pf SSP2 51, 9-mer A02 supermotif peptide)], the binding affinity ratio (IC50 of standard peptide / IC50 of test peptide) worked out at 0.046. Consider SAWENVKNV (modifications not checked) [SSP2 218 …], for which the binding affinity ratio (IC50 of standard peptide / IC50 of test peptide) came out at 0.0019. Consider GIAGGLALL (modifications not checked) [… (Pf SSP2 503, 9-mer)], for which the binding affinity ratio (IC50 of standard peptide / IC50 of test peptide) came out at 0.0022.

Take LIFFDLFLV (modifications not checked) [… (Pf SSP2 15, 9-mer A02 supermotif peptide)]: the binding affinity ratio (IC50 of standard peptide / IC50 of test peptide) was 0.089. Same read-out and setting: the figure for SVFFLALFFI (modifications not checked) [… (P. falciparum EXP-1, position 5, 10 amino acids)] is 0.0017.

For HLGNVKYLV (modifications not checked) [… (Pf SSP2 3, 9-mer)], the binding affinity ratio (IC50 of standard peptide / IC50 of test peptide) was determined as 0.0017. Same read-out and setting: the same measure for LLGGVGLVL (modifications not checked) [… (EXP position 92, 9 amino acids)]: 0.0038; for VLLGGVGLV (modifications not checked) [… (P. falciparum EXP-1, position 91, 9 amino acids)]: 0.029; for VIGPFMKAV (modifications not checked) [SSP2 226 …]: 0.0004. The same measure, in the same setting: the same measure for IVFLIFFDL (modifications not checked) [… (Pf SSP2 12, 9-mer A02 supermotif peptide)]: 0.0024.

The target of another assay is HLA-A*1101 (human).
Settings: not given
For the molecule QCEEERCPPK (modifications not checked) [… (Pf SSP2 280)], the binding affinity ratio (IC50 of standard peptide / IC50 of test peptide) is 0.0002.

In the case of QDSLKESRK (modifications not checked) [… (Pf SSP2 169)], the binding affinity ratio (IC50 of standard peptide / IC50 of test peptide) is 0.0002.

Consider QGINVAFNR (modifications not checked) [… (Pf SSP2 192)], for which the binding affinity ratio (IC50 of standard peptide / IC50 of test peptide) worked out at 0.078. Still for that read-out and setting: the same measure for PSPNPEEGK (modifications not checked) [… (Pf SSP2 328)]: 0.0002. For the molecule PDSIQDSLK (modifications not checked) [… (Pf SSP2 165)], the binding affinity ratio (IC50 of standard peptide / IC50 of test peptide) is 0.0002.

Take NSEDRETRPH (modifications not checked) [… (Pf SSP2 448)]: the binding affinity ratio (IC50 of standard peptide / IC50 of test peptide) was determined as 0.0002. Still for that read-out and setting: the same measure for QSQDNNGNR (modifications not checked) [… (Pf SSP2 436)]: 0.0002.

Staying with this assay, now noted: scale: ratio.
With HDLISDMIKK (modifications not checked), the binding affinity ratio (relative to standard peptide) is 0.0002. For GVSSKKKNKK (modifications not checked), the binding affinity ratio (relative to standard peptide) was 0.0002.

On to IFNKESLAEK (modifications not checked) [Pf EXP peptide … (position 15)], for which the binding affinity ratio (relative to standard peptide) is 0.0003. On the same count and under the same terms, the same measure for KGTGSGVSSK (modifications not checked) [Pf EXP peptide … (position 27)]: 0.0009; for GVSSKKKNK (modifications not checked): 0.0002.

Consider HDLISDMIK (modifications not checked), for which the binding affinity ratio (relative to standard peptide) was determined as 0.0002.
